According to PMC3281051, “Probing High Affinity Sequences of DNA Aptamer against VEGF165”:

Columns and labels:
[1] = target: VEGF on HT-29 cells (human) (UniProt P15692); assay: flow cytometry; conditions: hypoxia 1% O2, 37 C, scrambled signal subtracted, SPR (BIAcore 2000, CM5): PBS + 0.005% Tween-20, 25 C, 30 ul/min, aptamer 0.2-100 nM, 1:1 Langmuir fit, cells: culture medium, 2 h
VEGF121 = VEGF121 (human, UniProt P15692-9 27-147); assay: SPR; SPR (BIAcore 2000, CM5): PBS + 0.005% Tween-20, 25 C, 30 ul/min, aptamer 0.2-100 nM, 1:1 Langmuir fit; cells: culture medium, 37 C, 2 h, 1% O2; conditions: protein: commercial; tags: carrier-free; chain copies: 2; hairpin
VEGF165 = VEGF165 (human, UniProt P15692-4 27-191); assay: as above; conditions: protein: commercial, tags: carrier-free, chain copies: 2
VEGF165, human = VEGF165, human (Homo sapiens (Human), UniProt P15692 27-191); assay: SPR; PBS, 0.005% Tween-20, 25 C; protein amine-coupled on CM5; conditions: chain copies: 2
Sequence of VEGF165, human (P15692 other isoform, or with tags, fused parts or gaps): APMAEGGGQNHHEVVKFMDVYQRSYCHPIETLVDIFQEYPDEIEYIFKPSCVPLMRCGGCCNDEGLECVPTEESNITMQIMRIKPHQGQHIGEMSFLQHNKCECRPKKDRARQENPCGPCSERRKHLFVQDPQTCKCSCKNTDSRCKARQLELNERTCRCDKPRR

Sequence of VEGF121 (P15692 other isoform, or with tags, fused parts or gaps): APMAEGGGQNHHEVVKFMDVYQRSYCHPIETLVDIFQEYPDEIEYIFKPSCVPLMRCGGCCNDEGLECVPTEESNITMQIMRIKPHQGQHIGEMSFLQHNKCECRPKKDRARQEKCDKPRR
Sequence of VEGF on HT-29 cells (human) (P15692 whole entry): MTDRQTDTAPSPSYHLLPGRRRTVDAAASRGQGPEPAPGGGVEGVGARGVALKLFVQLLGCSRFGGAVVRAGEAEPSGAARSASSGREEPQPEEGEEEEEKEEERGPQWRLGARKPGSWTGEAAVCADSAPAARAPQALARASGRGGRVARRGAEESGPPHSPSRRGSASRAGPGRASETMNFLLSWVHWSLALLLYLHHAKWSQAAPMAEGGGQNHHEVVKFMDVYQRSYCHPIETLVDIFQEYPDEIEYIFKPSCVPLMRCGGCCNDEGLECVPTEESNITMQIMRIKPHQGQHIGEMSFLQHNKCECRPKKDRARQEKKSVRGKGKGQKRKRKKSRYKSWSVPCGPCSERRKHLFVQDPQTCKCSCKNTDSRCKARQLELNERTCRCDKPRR

With “CAATTGGGCCCGTCCGTATGGTGGGT [SL2-B Texas Red]” the Kd [1] was 1 nM.

B1: SL2-B (ssDNA)
DNA: CAATTGGGCCCGTCCGTATGGTGGGT
Molecule B1 has a Kd (VEGF121) of 10200 ± 1890 nM and a Kd (VEGF165; hairpin) of 0.5 ± 0.32 nM.

B2: SL2-A (ssDNA)
DNA: GCCCGTCCGTATGGTGGGT
In the case of B2, the Kd (VEGF165; hairpin) is reported as 10 ± 1.1 nM.

B3: SL2 (ssDNA)
DNA: CCCGTCCGTATGGTGGG
B3 was tested, and the Kd (VEGF165; hairpin) was 49 ± 2.4 nM.

B4: SL1 (ssDNA)
DNA: ATACCAGTCTATTCAATTGG
B4: no binding (VEGF165; hairpin).

B5: VEa5 (ssDNA)
DNA: ATACCAGTCTATTCAATTGGGCCCGTCCGTATGGTGGGTGTGCTGGCCAGATAGTATGTGCAATCA
B5 gave a Kd (VEGF165; 3 stem-loops (mfold)) of 120 ± 1.8 nM and a Kd (VEGF165, human) of 120 ± 1.8 nM.
